Target: human C3b (human, UniProt P01024 23-667; P01024 749-1663, limits assumed)
Test: cell-based or functional assay

Sequence of human C3b (P01024 23-667 limits assumed, form in doubt, chain 1 of 2): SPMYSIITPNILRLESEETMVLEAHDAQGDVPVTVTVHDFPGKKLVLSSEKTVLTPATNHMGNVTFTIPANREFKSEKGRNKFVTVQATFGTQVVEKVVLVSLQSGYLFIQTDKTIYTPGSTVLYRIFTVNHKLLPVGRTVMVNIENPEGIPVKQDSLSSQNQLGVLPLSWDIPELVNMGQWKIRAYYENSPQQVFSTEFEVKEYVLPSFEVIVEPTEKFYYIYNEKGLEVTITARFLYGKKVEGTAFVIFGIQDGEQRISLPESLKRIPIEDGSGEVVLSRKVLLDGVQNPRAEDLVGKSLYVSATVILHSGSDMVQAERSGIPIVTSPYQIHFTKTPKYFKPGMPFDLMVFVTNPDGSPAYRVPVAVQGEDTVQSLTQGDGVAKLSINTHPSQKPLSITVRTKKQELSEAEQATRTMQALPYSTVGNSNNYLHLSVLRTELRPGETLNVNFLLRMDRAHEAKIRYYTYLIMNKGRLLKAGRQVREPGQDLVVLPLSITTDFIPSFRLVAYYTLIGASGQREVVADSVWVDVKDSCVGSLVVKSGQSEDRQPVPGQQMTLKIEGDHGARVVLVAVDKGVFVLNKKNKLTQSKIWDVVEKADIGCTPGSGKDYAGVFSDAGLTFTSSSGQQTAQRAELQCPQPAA
Sequence of human C3b (P01024 749-1663 limits assumed, form in doubt, chain 2 of 2): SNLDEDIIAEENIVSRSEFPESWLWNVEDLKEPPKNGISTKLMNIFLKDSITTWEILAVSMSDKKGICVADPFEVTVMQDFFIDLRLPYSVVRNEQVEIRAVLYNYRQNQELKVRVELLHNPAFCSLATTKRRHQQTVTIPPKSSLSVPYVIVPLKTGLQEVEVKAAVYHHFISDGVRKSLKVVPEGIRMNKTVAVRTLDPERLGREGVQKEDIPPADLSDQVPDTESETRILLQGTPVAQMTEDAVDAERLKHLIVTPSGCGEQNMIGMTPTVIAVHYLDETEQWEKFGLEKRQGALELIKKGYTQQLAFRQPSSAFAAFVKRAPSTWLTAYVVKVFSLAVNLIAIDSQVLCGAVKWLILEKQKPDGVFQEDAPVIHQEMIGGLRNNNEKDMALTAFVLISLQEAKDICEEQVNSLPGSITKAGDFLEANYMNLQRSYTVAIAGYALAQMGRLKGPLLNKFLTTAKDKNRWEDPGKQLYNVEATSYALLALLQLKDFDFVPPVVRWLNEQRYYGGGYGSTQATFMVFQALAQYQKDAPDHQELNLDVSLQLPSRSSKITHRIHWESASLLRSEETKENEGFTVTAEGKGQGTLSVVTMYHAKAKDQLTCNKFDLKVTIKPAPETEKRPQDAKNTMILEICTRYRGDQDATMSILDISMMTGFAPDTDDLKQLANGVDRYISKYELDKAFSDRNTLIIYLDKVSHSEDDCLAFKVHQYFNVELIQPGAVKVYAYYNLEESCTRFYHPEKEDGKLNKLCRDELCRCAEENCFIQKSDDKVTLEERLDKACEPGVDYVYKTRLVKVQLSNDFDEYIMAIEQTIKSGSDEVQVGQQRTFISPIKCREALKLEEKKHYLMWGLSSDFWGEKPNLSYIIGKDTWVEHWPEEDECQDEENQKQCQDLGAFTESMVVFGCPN

IC50 of inhibition of MAC formation in zymosan activated human serum (Wieslab Complement system Screen kit ELISA, FIG. 9): 125 nM
B1: small polypeptide comprising CCPs 8-10 of CR1 (SEQ ID NO:3) (receptor)
chain: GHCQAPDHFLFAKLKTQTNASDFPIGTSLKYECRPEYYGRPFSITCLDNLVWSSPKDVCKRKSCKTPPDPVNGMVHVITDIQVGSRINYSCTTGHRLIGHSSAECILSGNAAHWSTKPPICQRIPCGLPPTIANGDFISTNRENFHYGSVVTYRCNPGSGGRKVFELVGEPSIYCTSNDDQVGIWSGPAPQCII
